Results on 32 molecules are retold here after patent US20250076311A1 (Chugai, published 2025).

The chains are these.
B1: MS1032LO06-P1375m (antibody, human IgG1, kappa, name in EU numbering)
heavy: not shown
light: DIVMTQSPATLSLSPGERATLSCTSSQSVYHANWLSWFQQKPGQPPKLLIYWASTLAYGVPSRFSGSGSGTDFTLTISSLQPEDAATYYCAGGYGGGRYAFGQGTKVEIKRTVAAPSVFIFPPSDEQLKSGTASVVCLLNNFYPREAKVQWKVDNALQSGNSQESVTEQDSKDSTYSLSSTLTLSKADYEKHKVYACEVTHQGLSSPVTKSFNRGEC
notes: also called M103205H795-P1375m; copies: 2 + 2
B2: M103205H795-P1484m/M103202L889-SK1 (antibody, human IgG1, kappa, name in EU numbering)
heavy: not shown
light: B1 light
notes: copies: 2 + 2
B3: M103205H795-P1533m/M103202L889-SK1 (antibody, human IgG1, kappa, name in EU numbering)
heavy: not shown
light: B1 light
notes: copies: 2 + 2
B4: M103205H795-P1524m/M103202L889-SK1 (antibody, human IgG1, kappa, name in EU numbering)
heavy: not shown
light: B1 light
B5: M103205H795-P1534m/M103202L889-SK1 (antibody, human IgG1, kappa, name in EU numbering)
heavy: not shown
light: B1 light
notes: copies: 2 + 2
B6: M103205H795-P1496m/M103202L889-SK1 (antibody, human IgG1, kappa, name in EU numbering)
heavy: not shown
light: B1 light
notes: copies: 2 + 2
B7: M103205H795-P1493m/M103202L889-SK1 (antibody, human IgG1, kappa, name in EU numbering)
heavy: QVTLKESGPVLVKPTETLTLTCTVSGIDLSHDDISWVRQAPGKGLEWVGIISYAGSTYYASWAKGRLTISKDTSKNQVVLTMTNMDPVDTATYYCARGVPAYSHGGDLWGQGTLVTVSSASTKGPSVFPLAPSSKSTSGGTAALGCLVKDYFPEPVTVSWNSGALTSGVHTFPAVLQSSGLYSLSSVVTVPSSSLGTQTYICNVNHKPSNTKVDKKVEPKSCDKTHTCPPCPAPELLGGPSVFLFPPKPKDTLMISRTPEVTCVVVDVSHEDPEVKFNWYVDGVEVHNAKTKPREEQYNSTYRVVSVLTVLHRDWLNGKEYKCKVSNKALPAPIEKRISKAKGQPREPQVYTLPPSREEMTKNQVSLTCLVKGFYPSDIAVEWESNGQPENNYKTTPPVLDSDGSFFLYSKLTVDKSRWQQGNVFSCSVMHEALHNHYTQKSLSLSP
light: B1 light
notes: copies: 2 + 2
B8: M103205H795-P1489m/M103202L889-SK1 (antibody, human IgG1, kappa, name in EU numbering)
heavy: not shown
light: B1 light
notes: copies: 2 + 2
B9: M103205H795-P1495m/M103202L889-SK1 (antibody, human IgG1, kappa, name in EU numbering)
heavy: not shown
light: B1 light
notes: copies: 2 + 2
B10: M103205H795-P1525m/M103202L889-SK1 (antibody, human IgG1, kappa, name in EU numbering)
heavy: not shown
light: B1 light
B11: M103205H795-P1498m/M103202L889-SK1 (antibody, human IgG1, kappa, name in EU numbering)
heavy: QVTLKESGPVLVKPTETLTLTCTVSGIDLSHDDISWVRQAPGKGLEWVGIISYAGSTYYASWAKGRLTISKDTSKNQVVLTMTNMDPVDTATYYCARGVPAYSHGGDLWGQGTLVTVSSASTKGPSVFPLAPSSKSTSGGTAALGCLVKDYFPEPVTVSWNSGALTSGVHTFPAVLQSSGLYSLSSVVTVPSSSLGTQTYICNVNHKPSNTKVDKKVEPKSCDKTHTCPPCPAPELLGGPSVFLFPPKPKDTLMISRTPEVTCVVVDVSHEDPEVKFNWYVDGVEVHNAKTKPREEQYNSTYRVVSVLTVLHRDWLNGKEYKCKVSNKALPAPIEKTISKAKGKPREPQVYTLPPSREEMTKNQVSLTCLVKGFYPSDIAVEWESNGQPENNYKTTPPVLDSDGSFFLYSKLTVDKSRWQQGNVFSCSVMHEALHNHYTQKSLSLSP
light: B1 light
B12: M103205H795-P1494m/M103202L889-SK1 (antibody, human IgG1, kappa, name in EU numbering)
heavy: not shown
light: B1 light
notes: copies: 2 + 2
B13: M103205H795-P1528m/M103202L889-SK1 (antibody, human IgG1, kappa, name in EU numbering)
heavy: not shown
light: B1 light
notes: copies: 2 + 2
B14: M103205H795-P1497m/M103202L889-SK1 (antibody, human IgG1, kappa, name in EU numbering)
heavy: not shown
light: B1 light
B15: M103205H795-P1530m/M103202L889-SK1 (antibody, human IgG1, kappa, name in EU numbering)
heavy: not shown
light: B1 light
notes: copies: 2 + 2
B16: M103205H795-P1486m/M103202L889-SK1 (antibody, human IgG1, kappa, name in EU numbering)
heavy: not shown
light: B1 light
notes: copies: 2 + 2
B17: M103205H795-P1523m/M103202L889-SK1 (antibody, human IgG1, kappa, name in EU numbering)
heavy: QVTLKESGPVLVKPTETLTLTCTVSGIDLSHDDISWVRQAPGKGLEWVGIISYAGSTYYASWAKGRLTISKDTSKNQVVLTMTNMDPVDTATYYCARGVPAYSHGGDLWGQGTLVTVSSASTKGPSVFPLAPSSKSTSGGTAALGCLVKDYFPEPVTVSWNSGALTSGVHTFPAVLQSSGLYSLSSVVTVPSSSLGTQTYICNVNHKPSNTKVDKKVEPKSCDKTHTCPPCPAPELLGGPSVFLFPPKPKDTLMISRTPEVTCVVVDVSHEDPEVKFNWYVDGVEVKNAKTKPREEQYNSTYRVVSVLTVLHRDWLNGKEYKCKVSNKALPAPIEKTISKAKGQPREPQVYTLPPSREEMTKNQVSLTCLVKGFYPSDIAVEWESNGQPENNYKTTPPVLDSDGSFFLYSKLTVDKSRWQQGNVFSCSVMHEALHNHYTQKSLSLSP
light: B1 light
notes: copies: 2 + 2
B18: M103205H795-P1491m/M103202L889-SK1 (antibody, human IgG1, kappa, name in EU numbering)
heavy: not shown
light: B1 light
notes: copies: 2 + 2
B19: M103205H795-P1485m/M103202L889-SK1 (antibody, human IgG1, kappa, name in EU numbering)
heavy: not shown
light: B1 light
notes: copies: 2 + 2
B20: M103205H795-P1487m/M103202L889-SK1 (antibody, human IgG1, kappa, name in EU numbering)
heavy: not shown
light: B1 light
notes: copies: 2 + 2
B21: M103205H795-P1532m/M103202L889-SK1 (antibody, human IgG1, kappa, name in EU numbering)
heavy: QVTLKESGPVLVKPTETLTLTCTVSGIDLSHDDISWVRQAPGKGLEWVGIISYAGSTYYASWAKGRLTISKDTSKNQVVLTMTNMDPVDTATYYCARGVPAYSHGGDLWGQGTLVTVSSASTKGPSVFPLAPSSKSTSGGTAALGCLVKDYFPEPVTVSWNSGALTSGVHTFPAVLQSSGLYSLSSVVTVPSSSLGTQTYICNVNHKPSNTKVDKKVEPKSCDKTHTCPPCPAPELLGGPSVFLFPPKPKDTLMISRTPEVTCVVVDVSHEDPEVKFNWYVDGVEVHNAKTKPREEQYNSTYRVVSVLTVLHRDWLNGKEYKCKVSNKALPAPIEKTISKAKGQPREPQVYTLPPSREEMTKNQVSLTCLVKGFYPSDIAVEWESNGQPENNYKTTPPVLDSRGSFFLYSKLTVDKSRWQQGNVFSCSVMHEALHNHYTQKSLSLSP
light: B1 light
notes: copies: 2 + 2
B22: M103205H795-P1522m/M103202L889-SK1 (antibody, human IgG1, kappa, name in EU numbering)
heavy: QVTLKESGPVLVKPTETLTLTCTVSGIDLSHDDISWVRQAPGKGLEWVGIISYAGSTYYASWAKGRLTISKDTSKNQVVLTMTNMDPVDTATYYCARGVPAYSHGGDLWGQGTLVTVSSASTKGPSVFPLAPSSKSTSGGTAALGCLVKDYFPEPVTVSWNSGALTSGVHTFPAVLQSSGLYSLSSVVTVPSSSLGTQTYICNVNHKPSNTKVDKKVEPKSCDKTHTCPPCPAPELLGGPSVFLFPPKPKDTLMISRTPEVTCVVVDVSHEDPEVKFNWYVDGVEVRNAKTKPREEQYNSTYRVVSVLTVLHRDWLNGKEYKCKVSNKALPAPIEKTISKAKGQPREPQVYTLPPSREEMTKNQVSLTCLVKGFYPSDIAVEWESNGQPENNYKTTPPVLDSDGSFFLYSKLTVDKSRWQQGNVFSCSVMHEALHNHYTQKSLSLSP
light: B1 light
notes: copies: 2 + 2
B23: M103205H795-P1526m/M103202L889-SK1 (antibody, human IgG1, kappa, name in EU numbering)
heavy: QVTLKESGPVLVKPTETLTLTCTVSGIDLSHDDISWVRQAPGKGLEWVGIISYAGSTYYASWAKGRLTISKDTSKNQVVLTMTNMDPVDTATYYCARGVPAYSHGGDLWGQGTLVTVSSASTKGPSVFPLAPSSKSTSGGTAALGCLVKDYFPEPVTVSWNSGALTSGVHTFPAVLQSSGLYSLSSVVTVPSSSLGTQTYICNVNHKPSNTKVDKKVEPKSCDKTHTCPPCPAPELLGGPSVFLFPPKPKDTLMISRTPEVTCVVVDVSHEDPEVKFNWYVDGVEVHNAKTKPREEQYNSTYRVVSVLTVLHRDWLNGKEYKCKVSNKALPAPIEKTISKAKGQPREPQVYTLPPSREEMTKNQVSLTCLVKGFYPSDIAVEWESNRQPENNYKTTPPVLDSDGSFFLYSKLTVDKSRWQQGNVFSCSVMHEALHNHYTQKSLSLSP
light: B1 light
notes: copies: 2 + 2
B24: M103205H795-P1492m/M103202L889-SK1 (antibody, human IgG1, kappa, name in EU numbering)
heavy: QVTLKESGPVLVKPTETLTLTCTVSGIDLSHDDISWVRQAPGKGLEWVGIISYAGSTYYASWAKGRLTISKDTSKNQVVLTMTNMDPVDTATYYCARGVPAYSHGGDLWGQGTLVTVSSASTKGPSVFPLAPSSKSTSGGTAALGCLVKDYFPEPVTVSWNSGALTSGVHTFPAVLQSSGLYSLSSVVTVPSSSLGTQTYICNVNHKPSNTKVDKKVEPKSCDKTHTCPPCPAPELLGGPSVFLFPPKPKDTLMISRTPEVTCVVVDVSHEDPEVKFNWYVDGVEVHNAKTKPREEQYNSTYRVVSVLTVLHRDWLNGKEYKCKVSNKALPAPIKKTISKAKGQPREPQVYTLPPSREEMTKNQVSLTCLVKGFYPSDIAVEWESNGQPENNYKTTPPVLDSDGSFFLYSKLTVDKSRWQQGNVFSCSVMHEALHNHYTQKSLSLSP
light: B1 light
notes: copies: 2 + 2
B25: M103205H795-P1500m/M103202L889-SK1 (antibody, human IgG1, kappa, name in EU numbering)
heavy: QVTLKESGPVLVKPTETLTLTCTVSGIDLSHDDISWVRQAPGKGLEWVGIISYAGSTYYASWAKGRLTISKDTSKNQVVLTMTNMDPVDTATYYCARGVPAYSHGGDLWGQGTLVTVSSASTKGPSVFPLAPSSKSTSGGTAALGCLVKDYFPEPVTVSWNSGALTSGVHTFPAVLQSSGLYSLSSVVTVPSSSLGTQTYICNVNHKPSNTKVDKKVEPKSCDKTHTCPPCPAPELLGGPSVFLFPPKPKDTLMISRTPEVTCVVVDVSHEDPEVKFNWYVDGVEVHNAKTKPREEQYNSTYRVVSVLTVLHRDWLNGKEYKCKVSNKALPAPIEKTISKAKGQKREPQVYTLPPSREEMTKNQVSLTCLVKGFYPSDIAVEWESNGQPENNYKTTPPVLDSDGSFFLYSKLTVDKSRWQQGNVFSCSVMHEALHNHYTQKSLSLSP
light: B1 light
B26: M103205H795-P1535m/M103202L889-SK1 (antibody, human IgG1, kappa, name in EU numbering)
heavy: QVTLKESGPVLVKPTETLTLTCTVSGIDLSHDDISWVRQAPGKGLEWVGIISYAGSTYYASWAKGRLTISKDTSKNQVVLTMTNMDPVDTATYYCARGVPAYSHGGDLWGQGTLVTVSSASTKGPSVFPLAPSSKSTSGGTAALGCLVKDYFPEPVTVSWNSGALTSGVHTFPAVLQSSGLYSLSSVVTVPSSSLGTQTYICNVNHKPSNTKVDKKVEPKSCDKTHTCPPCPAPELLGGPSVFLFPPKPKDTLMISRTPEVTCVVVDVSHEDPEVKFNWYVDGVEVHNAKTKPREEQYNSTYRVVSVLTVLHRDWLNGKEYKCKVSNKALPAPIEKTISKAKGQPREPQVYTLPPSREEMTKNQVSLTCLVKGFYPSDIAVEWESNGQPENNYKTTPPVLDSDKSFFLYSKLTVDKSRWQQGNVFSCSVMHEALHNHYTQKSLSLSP
light: B1 light
notes: copies: 2 + 2
B27: M103205H795-P1490m/M103202L889-SK1 (antibody, human IgG1, kappa, name in EU numbering)
heavy: not shown
light: B1 light
notes: copies: 2 + 2
B28: M103205H795-P1529m/M103202L889-SK1 (antibody, human IgG1, kappa, name in EU numbering)
heavy: not shown
light: B1 light
notes: copies: 2 + 2
B29: M103205H795-P1531m/M103202L889-SK1 (antibody, human IgG1, kappa, name in EU numbering)
heavy: not shown
light: B1 light
notes: copies: 2 + 2
B30: M103205H795-P1501m/M103202L889-SK1 (antibody, human IgG1, kappa, name in EU numbering)
heavy: not shown
light: B1 light
notes: copies: 2 + 2
B31: M103205H795-P1527m/M103202L889-SK1 (antibody, human IgG1, kappa, name in EU numbering)
heavy: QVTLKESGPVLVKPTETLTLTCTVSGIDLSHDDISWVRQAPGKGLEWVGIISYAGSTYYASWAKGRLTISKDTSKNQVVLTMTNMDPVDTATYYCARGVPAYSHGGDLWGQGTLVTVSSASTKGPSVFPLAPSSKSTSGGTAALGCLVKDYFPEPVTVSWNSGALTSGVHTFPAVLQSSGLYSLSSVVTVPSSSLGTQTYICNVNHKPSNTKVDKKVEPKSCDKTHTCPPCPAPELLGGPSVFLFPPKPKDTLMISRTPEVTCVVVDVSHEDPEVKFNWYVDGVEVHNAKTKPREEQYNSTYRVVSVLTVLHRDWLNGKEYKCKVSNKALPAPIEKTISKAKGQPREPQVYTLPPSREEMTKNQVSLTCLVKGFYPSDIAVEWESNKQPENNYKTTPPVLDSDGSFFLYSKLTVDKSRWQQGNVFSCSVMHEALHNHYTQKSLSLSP
light: B1 light
notes: copies: 2 + 2
B32: M103205H795-P1488m/M103202L889-SK1 (antibody, human IgG1, kappa, name in EU numbering)
heavy: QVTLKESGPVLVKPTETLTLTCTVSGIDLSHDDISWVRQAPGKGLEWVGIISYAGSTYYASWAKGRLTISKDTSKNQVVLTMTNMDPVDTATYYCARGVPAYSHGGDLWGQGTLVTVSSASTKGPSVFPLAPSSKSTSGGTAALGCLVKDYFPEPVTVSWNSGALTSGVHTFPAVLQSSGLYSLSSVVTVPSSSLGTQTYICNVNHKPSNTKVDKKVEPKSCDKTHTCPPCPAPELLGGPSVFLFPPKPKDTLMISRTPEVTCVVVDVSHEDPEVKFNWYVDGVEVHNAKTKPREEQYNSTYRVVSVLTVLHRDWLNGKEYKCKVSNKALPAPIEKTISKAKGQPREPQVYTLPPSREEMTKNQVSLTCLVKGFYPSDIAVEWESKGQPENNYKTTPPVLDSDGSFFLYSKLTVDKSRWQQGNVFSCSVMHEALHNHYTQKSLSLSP
light: B1 light
notes: copies: 2 + 2

In one test the target is T1, human FcγRIIb constitutively expressed on MDCK cells (human, UniProt P31994 43-310).
T1 sequence (looked up): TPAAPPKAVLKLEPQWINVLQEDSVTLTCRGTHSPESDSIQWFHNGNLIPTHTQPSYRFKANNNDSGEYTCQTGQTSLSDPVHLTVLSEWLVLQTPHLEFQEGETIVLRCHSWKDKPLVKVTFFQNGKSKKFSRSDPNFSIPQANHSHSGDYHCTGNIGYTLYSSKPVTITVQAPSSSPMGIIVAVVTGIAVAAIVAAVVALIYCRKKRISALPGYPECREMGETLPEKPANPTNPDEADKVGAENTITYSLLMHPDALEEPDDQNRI
Nature of the test: cell-based or functional assay.
For the molecule B1, the “celluar uptake (labelled human latent myostatin taken up as antigen-antibody complex)” value (“celluar uptake” below) is 3.43 relative to SG1 = 1.00.
On the same count and under the same terms, under B2 stands 0 relative to SG1 = 1.00.
In the case of B3, the “celluar uptake” value is 3.52 relative to SG1 = 1.00.
For the molecule B4, the “celluar uptake” value is 3.66 relative to SG1 = 1.00.
For B5, the “celluar uptake” value was 3.12 relative to SG1 = 1.00.
Consider B6, for which the “celluar uptake” value is 1.69 relative to SG1 = 1.00.
On to B7, for which the “celluar uptake” value is 0.99 relative to SG1 = 1.00.
As to B8, the “celluar uptake” value was 1.68 relative to SG1 = 1.00.
Turning to B9, the “celluar uptake” value was 1.76 relative to SG1 = 1.00.
As for B10, the “celluar uptake” value was 3.55 relative to SG1 = 1.00.
With B11, the “celluar uptake” value is 1.56 relative to SG1 = 1.00.
With B12, the “celluar uptake” value was 1.12 relative to SG1 = 1.00.
With B13, the “celluar uptake” value is 3.02 relative to SG1 = 1.00.
On to B14, for which the “celluar uptake” value was 1.38 relative to SG1 = 1.00.
As for B15, the “celluar uptake” value is 3.12 relative to SG1 = 1.00.
Take B16: the “celluar uptake” value was 1.52 relative to SG1 = 1.00.
On to B17, for which the “celluar uptake” value was 1.91 relative to SG1 = 1.00.
As for B18, the “celluar uptake” value was 1.37 relative to SG1 = 1.00.
Still for that read-out and setting: under B19 stands 1.88 relative to SG1 = 1.00; under B20, 1.23 relative to SG1 = 1.00.
The same measure, in the same setting: to B21 belongs 4.16 relative to SG1 = 1.00; to B22, 2.13 relative to SG1 = 1.00; to B23, 1.2 relative to SG1 = 1.00.
Same read-out and setting: under B24 stands 1.13 relative to SG1 = 1.00.
Turning to B25, the “celluar uptake” value is 1.82 relative to SG1 = 1.00.
Turning to B26, the “celluar uptake” value was 2.49 relative to SG1 = 1.00.
Turning to B27, the “celluar uptake” value was 1.33 relative to SG1 = 1.00.
With B28, the “celluar uptake” value was 2.86 relative to SG1 = 1.00.
The same measure, in the same setting: to B29 belongs 2.35 relative to SG1 = 1.00.
B30: the “celluar uptake” value was 2.4 relative to SG1 = 1.00.
On to B31, for which the “celluar uptake” value was 0.92 relative to SG1 = 1.00.
With B32, the “celluar uptake” value is 1.45 relative to SG1 = 1.00.

The target in another test is T2, soluble mouse FcγRII, His-tagged (mouse, UniProt P08101 30-210, limits assumed).
T2 construct: Captured on the chip through an anti-His antibody
T2 sequence (looked up): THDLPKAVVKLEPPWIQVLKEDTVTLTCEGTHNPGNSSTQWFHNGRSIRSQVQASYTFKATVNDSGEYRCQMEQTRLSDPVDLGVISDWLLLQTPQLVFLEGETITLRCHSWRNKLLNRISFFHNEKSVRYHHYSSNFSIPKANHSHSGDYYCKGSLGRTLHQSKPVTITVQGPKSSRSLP
Nature of the test: SPR, mouse FcγRII captured via His-tag, antigen-antibody complex injected, pH 7.4, 25 C. On the procedure:
Regarding the produced Fc region variant-containing antibodies, binding assays between soluble mouse FcγRII and antigen-antibody complexes were performed using BIACORE® T200 (GE Healthcare). Soluble mouse FcγRII was produced in the form of a His-tagged molecule by a method known to those skilled in the art. An appropriate amount of an anti-His antibody was fixed onto Sensor chip CM5 (GE Healthcare) by the amine coupling method using a His capture kit (GE Healthcare) to capture mouse FcγRII. Next, an antibody-antigen complex and a running buffer (as a reference solution) were injected, and interaction was allowed to take place with the mouse FcγRII captured onto the sensor chip. 20 mM N-(2-Acetamido)-2-aminoethanesulfonic acid, 150 mM NaCl, 1.2 mM CaCl₂), and 0.05% (w/v) TWEEN® 20 at pH7.4 was used as the running buffer, and the respective buffer was also used to dilute the soluble mouse FcγRII. To regenerate the sensor chip, 10 mM glycine-HCl at pH1.5 was used. All measurements were carried out at 25° C. […] To calculate the parameters, the BIACORE® T100 Evaluation Software (GE Healthcare) was used.
For B1, the “biacore IC binding (relative, SG1 = 1.00)” value was 1.21 relative to SG1.
The same measure, in the same setting: under B2 stands 1.33 relative to SG1; under B3, 1.18 relative to SG1.
Take B4: the “biacore IC binding (relative, SG1 = 1.00)” value was 1.4 relative to SG1.
As to B5, the “biacore IC binding (relative, SG1 = 1.00)” value was 1.12 relative to SG1.
With B6, the “biacore IC binding (relative, SG1 = 1.00)” value is 1.28 relative to SG1.
For the molecule B7, the “biacore IC binding (relative, SG1 = 1.00)” value was 1.1 relative to SG1.
Turning to B8, the “biacore IC binding (relative, SG1 = 1.00)” value was 1.24 relative to SG1.
Still for that read-out and setting: under B9 stands 1.3 relative to SG1; under B10, 1.31 relative to SG1; under B11, 1.38 relative to SG1.
As to B12, the “biacore IC binding (relative, SG1 = 1.00)” value is 1.14 relative to SG1.
Turning to B13, the “biacore IC binding (relative, SG1 = 1.00)” value is 1.12 relative to SG1.
The same measure, in the same setting: under B14 stands 1.49 relative to SG1.
For B15, the “biacore IC binding (relative, SG1 = 1.00)” value was 1.09 relative to SG1.
Turning to B16, the “biacore IC binding (relative, SG1 = 1.00)” value was 1.2 relative to SG1.
In the case of B17, the “biacore IC binding (relative, SG1 = 1.00)” value is 1.19 relative to SG1.
For B18, the “biacore IC binding (relative, SG1 = 1.00)” value was 1.05 relative to SG1.
B19: the “biacore IC binding (relative, SG1 = 1.00)” value is 1.29 relative to SG1.
For the molecule B20, the “biacore IC binding (relative, SG1 = 1.00)” value is 1.46 relative to SG1.
For B21, the “biacore IC binding (relative, SG1 = 1.00)” value was 1.23 relative to SG1.
B22: the “biacore IC binding (relative, SG1 = 1.00)” value was 1.24 relative to SG1.
Still for that read-out and setting: to B23 belongs 1.04 relative to SG1.
On the same count and under the same terms, to B24 belongs 0.88 relative to SG1; to B25, 1.32 relative to SG1; to B26, 1.11 relative to SG1.
Take B27: the “biacore IC binding (relative, SG1 = 1.00)” value was 1.28 relative to SG1.
Consider B28, for which the “biacore IC binding (relative, SG1 = 1.00)” value is 1.08 relative to SG1.
With B29, the “biacore IC binding (relative, SG1 = 1.00)” value was 1.01 relative to SG1.
Turning to B30, the “biacore IC binding (relative, SG1 = 1.00)” value was 1.82 relative to SG1.
As for B31, the “biacore IC binding (relative, SG1 = 1.00)” value was 0.98 relative to SG1.
Consider B32, for which the “biacore IC binding (relative, SG1 = 1.00)” value is 1.43 relative to SG1.
